We go through three molecules from US20230136228A1 (LAMKAP BIO ALPHA, published 2023).

One test concerns the target T1, human CD3ε (human, UniProt P07766 23-207).
T1 construct: whole, on cells; Present on cells as part of the CD3/TCR complex; also called CD3 epsilon
The test is described as follows: flow cytometry, primary CD4+ and CD8+ T-cells. (In general: In flow cytometry, cells or beads pass a laser one at a time.)

Test [1] concerns the target T2, shed soluble CEACAM5 (sCEA) (human, UniProt P06731 35-685, limits assumed).
T2 sequence (looked up): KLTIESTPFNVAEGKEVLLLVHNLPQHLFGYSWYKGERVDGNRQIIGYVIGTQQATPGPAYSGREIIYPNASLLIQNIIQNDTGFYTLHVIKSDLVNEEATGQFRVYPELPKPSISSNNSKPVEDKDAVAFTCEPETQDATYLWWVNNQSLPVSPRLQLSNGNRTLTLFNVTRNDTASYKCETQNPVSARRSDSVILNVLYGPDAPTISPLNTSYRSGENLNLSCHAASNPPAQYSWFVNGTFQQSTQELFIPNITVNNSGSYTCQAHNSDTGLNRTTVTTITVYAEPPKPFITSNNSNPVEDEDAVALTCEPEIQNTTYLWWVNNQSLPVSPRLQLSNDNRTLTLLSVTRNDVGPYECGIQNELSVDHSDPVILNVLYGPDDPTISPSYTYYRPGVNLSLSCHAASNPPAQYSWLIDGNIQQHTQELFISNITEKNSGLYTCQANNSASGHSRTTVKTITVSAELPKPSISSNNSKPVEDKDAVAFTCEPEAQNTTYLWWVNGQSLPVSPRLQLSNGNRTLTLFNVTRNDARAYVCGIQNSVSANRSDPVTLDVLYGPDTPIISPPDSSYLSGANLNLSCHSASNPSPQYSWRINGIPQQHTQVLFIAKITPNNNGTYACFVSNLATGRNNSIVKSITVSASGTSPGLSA
The experiment in a line: cell-based or functional assay.

In test [2] the target is T3, human CEACAM5 (carcinoembryonic antigen, CEA), cell surface (human, UniProt P06731 35-685).
T3 construct: whole, on cells; also called CD66e
T3 sequence (looked up): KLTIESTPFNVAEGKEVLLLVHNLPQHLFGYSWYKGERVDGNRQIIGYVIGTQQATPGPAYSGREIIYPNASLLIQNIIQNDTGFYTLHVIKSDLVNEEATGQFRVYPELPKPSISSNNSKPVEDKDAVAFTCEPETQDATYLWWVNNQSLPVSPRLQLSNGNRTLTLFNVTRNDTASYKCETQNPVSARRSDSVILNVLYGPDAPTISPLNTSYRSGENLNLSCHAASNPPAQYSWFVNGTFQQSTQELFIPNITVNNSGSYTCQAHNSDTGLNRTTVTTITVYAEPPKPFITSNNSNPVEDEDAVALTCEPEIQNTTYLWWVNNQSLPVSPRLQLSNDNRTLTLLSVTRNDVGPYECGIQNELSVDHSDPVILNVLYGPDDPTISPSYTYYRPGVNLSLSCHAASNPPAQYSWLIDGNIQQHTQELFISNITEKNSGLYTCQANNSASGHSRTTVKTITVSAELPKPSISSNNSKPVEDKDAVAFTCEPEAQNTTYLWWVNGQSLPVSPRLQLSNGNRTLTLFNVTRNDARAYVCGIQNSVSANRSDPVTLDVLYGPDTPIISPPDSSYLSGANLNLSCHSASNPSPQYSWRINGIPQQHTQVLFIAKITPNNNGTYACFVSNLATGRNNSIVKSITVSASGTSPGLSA
The experiment in a line: flow cytometry, CEA positive cells.

Test [3] concerns the target T3, human CEACAM5 (carcinoembryonic …). The experiment in a line: cell-based or functional assay.
For test [4] the target is unchanged. The test is described as follows: flow cytometry, MKN-45 cells. From the text: Examples of cells that can be used include CEACAM5-positive cell lines such as the gastric adenocarcinoma cell line MKN45 (expressing 155′000 CEACAM5 molecules per cell), or the pancreatic adenocarcinoma cell line HPAF-II (expressing 108′000 CEACAM5 molecules per cell) or the colorectal adenocarcinoma cell line LS174T (expressing 26′000 CEACAM5 molecules per cell) and CEACAM5-negative cell lines, such as the lung carcinoma cell line A549 and the MKN45 CEACAM5-knock out cell line generated by CRISPR-CAS9 methodology. Cell staining and binding assessment can be performed as described above. Binding of the bsAb of the invention at 200 nM, 1000 nM and 5000 nM is 40% and higher compared to binding of TCB2014 (see Table 4 and also FIGS. 11 and 14).

The target of test [5] is T4, biotinylated recombinant human CEACAM5 protein (human, UniProt P06731 35-685, biotinylated in vitro with biotin ligase (Avitag)).
T4 construct: extracellular domain; also called recombinant CEA; CEA ECD; not shown: C-terminal Avitag and either a hexa-histidine tag, a human Fc region or a mouse Fc region; which one was used in the ELI
T4 sequence (looked up): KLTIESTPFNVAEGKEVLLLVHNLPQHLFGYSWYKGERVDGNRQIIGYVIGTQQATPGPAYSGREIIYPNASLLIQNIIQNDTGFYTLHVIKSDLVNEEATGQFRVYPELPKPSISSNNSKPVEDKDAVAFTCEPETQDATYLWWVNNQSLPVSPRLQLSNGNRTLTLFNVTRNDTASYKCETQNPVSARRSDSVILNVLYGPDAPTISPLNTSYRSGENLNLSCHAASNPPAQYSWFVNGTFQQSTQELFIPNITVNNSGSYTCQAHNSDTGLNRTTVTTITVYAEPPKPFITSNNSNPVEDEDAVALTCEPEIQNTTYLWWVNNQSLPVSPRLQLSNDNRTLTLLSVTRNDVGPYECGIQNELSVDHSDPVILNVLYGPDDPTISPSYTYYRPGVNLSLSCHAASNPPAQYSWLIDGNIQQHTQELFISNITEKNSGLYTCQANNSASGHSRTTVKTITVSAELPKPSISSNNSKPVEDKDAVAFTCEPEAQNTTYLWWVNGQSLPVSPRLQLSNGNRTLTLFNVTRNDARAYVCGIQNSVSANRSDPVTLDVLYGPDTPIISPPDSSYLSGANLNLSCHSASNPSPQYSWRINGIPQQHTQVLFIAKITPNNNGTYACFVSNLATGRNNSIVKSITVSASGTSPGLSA
The experiment in a line: competition ELISA with reference antibodies. On the technique in general: In an ELISA, binding on a coated surface is turned into a signal by an enzyme label.

The term EC50 denotes the concentration giving half of the maximal effect. A high value points to weaker potency.

Some results are limits rather than exact numbers.

T1 sequence (P07766 23-207): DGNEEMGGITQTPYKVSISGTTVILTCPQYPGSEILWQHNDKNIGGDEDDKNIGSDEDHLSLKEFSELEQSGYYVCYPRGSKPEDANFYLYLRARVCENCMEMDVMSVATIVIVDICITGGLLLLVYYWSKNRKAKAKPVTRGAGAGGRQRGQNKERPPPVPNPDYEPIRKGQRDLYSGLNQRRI

B1: AB54L3-1/N (bispecific antibody, human IgG1, kappa, lambda, L234A L235A)
heavy: EVQLVESGGGLVQPGGSLKLSCAASGFTFNTYAMNWVRQAPGKGLEWVGRIRSKYNNYATYYADSVKDRFTISRDDSKNTAYLQMNSLKTEDTAVYYCVRHGNFGNSYVSWFAYWGQGTLVTVSSASTKGPSVFPLAPSSKSTSGGTAALGCLVKDYFPEPVTVSWNSGALTSGVHTFPAVLQSSGLYSLSSVVTVPSSSLGTQTYICNVNHKPSNTKVDKRVEPKSCDKTHTCPPCPAPEAAGGPSVFLFPPKPKDTLMISRTPEVTCVVVDVSHEDPEVKFNWYVDGVEVHNAKTKPREEQYNSTYRVVSVLTVLHQDWLNGKEYKCKVSNKALAAPIEKTISKAKGQPREPQVYTLPPSREEMTKNQVSLTCLVKGFYPSDIAVEWESNGQPENNYKTTPPVLDSDGSFFLYSKLTVDKSRWQQGNVFSCSVMHEALHNHYTQKSLSLSPG
light 1: EIVLTQSPATLSLSPGERATLSCRASQEVHKNLNWYQQKPGQAPRLLIYHSSNRATGIPARFSGSGSGTDFTLTISSLEPEDFAVYYCQQFNYHHEHNTFGQGTKVEIKRTVAAPSVFIFPPSDEQLKSGTASVVCLLNNFYPREAKVQWKVDNALQSGNSQESVTEQDSKDSTYSLSSTLTLSKADYEKHKVYACEVTHQGLSSPVTKSFNRGEC
light 2: QTVVTQEPSLTVSPGGTVTLTCRSSTGAVTTSNYANWFQQKPGQAPRGLIGGTNKRAPGTPARFSGSLLGGKAALTLSGAQPEDEAEYYCALWYKQRWVFGGGTKLTVLGQPKAAPSVTLFPPSSEELQANKATLVCLISDFYPGAVTVAWKADSSPVKAGVETTTPSKQSNNKYAASSYLSLTPEQWKSHRSYSCQVTHEGSTVEKTVAPTECS
notes: Kappa-lambda body, lead optimization wave 2
With B1, in the test with human CD3ε, the binding result is recorded as “binds”. In test [1], the “EC50 fold change compared to no shed CEA condition, sCEA 0 µg/mL (reference)” value was determined as 1 fold; the “EC50 fold change compared to no shed CEA condition, sCEA 0.2 µg/mL” value worked out at 0.9 fold; the “EC50 fold change compared to no shed CEA condition, sCEA 1 µg/mL” value was 4.6 fold; the “EC50 fold change compared to no shed CEA condition, sCEA 5 µg/mL” value is 5.7 fold. Also, in test [2], the “binding higher than TCB2014 (at 200 nM)” value is at least 40%. In addition, in test [3], the “Killing EC50, HPAFII cells (TDCC, LDH release)” value worked out at 0.1 nM; the “Killing EC50, LS174T cells (TDCC, LDH release)” value is 0.13 nM; the “Killing EC50, MKN45 cells (TDCC, LDH release)” value stood at 0.11 nM. In test [4], it took 66.4 nM to reach a half-maximal effect (EC50); the “Top MFI value” worked out at 760000 MFI; the “binding higher than TCB2014 (at 200 nM, 1000 nM and 5000 nM)” value is at least 40%.

B2: AB66L3-1/N (bispecific antibody, human IgG1, kappa, lambda, L234A L235A)
heavy: EVQLVESGGGLVQPGGSLKLSCAASGFTFNTYAMNWVRQAPGKGLEWVGRIRSKYNNYATYYADSVKDRFTISRDDSKNTAYLQMNSLKTEDTAVYYCVRHGNFGNSYVSWFAYWGQGTLVTVSSASTKGPSVFPLAPSSKSTSGGTAALGCLVKDYFPEPVTVSWNSGALTSGVHTFPAVLQSSGLYSLSSVVTVPSSSLGTQTYICNVNHKPSNTKVDKRVEPKSCDKTHTCPPCPAPEAAGGPSVFLFPPKPKDTLMISRTPEVTCVVVDVSHEDPEVKFNWYVDGVEVHNAKTKPREEQYNSTYRVVSVLTVLHQDWLNGKEYKCKVSNKALAAPIEKTISKAKGQPREPQVYTLPPSREEMTKNQVSLTCLVKGFYPSDIAVEWESNGQPENNYKTTPPVLDSDGSFFLYSKLTVDKSRWQQGNVFSCSVMHEALHNHYTQKSLSLSPG
light 1: EIVLTQSPATLSLSPGERATLSCHSSQVVNKNLNWYQQKPGQAPRLLIYHGSNRATGIPARFSGSGSGTDFTLTISSLEPEDFAVYYCQQFDYFREHNTFGQGTKVEIKRTVAAPSVFIFPPSDEQLKSGTASVVCLLNNFYPREAKVQWKVDNALQSGNSQESVTEQDSKDSTYSLSSTLTLSKADYEKHKVYACEVTHQGLSSPVTKSFNRGEC
light 2: QTVVTQEPSLTVSPGGTVTLTCRSSTGAVTTSNYANWFQQKPGQAPRGLIGGTNKRAPGTPARFSGSLLGGKAALTLSGAQPEDEAEYYCALWYKQRWVFGGGTKLTVLGQPKAAPSVTLFPPSSEELQANKATLVCLISDFYPGAVTVAWKADSSPVKAGVETTTPSKQSNNKYAASSYLSLTPEQWKSHRSYSCQVTHEGSTVEKTVAPTECS
notes: as for B1
For B2, the binding result with human CD3ε is reported as “binds”. Further, in test [1], the “EC50 fold change compared to no shed CEA condition, sCEA 0 µg/mL (reference)” value is 1 fold; the “EC50 fold change compared to no shed CEA condition, sCEA 0.2 µg/mL” value is 1.2 fold; the “EC50 fold change compared to no shed CEA condition, sCEA 1 µg/mL” value was determined as 2.1 fold; the “EC50 fold change compared to no shed CEA condition, sCEA 5 µg/mL” value came out at 3.1 fold. The “binding higher than TCB2014 (at 200 nM)” value in test [2] is at least 40%. Also, in test [3], the “Killing EC50, HPAFII cells (TDCC, LDH release)” value worked out at 0.2 nM; the “Killing EC50, LS174T cells (TDCC, LDH release)” value is 0.22 nM; the “Killing EC50, MKN45 cells (TDCC, LDH release)” value is 0.05 nM. Moreover, in test [4], the midpoint of the response, the EC50, lay at 24.3 nM; the “Top MFI value” stood at 759000 MFI; the “binding higher than TCB2014 (at 200 nM, 1000 nM and 5000 nM)” value was at least 40%.

B3: anti-CEA antibody C11 (antibody, human IgG1, kappa, V domains shown)
VH: EVQLVESGGGLVQPGGSLKLSCAASGFTFNTYAMNWVRQAPGKGLEWVGRIRSKYNNYATYYADSVKDRFTISRDDSKNTAYLQMNSLKTEDTAVYYCVRHGNFGNSYVSWFAYWGQGTLVTVSS
VL: DIQMTQSPSTLSASVGDRVTITCRASQLISNGLYWYQQKPGKAPKLLIYDASILESGVPSRFSGSGSGTEFTLTISSLQPDDFATYYCQQRLSWPLTFGQGTKVEIKR
notes: Bivalent monoclonal antibody; also called C11 mAb
With B3, the binding result in test [5] is reported as “binds”.
